Experiment: soluble on expression in E. coli; label from the status in PepcDB or PDB records

Row | Sequence | soluble on expression in E. coli
1 | MGFLEDKKRTLMNLELAIREGLVDEEIIPILNKINEIDNYYTTSSCIGRVGIMEIPKDKNPKLYSRWLGKWHHYASYDELFNALKNKKEGYIVFVMNSPILHIACKDIESAKKMLELAIHSGLKASSIKSISDKRVIVEILTTYKVDTPIGEDGEIFVDNNYLKFLLDYSNSKLKRAREILMRWANRLDELKK | soluble
2 | MYALAFDLKIEILKKEYGEPYNKAYDDLRQELELLGFEWTQGSVYVNYSKENTLAQVYKAINKLSQIEWFKKSVRDIRAFKVEDFSDFTEIVKS | not soluble
3 | MSEFKSKLESETLDFLCDAILTLENREECYRFFDDIFTINEIKTIEQRLQVAKMLKEKHTYSDISAETGASTATISRVNRCINYGSDGYNIVLRRLEK | not soluble
4 | MGSDKIHHHHHHMTSICICDDEKQQRNMLNKIITREMDLWGYPYQIKEYSNGESLVYNLEHENYYIDIIFLDIELGKSNGVDIAKTIRKHSKDTIIIFVTGFSDYVFHGYDVGALNYILKPYKTEKICKVLKEALKKLEQWKENFITVQIGTNLCKINTKDILYFKSELRKLTVVTFDKTLEYYGKLNDMETVLPSNFIRTHQRYIVNLNHVDSITQTYAKVQNEKIPISRKKYQEVVGKFTRYMLES | not soluble
5 | ARGSHMEEMIRSLQQRPEPTPEEWDLIHIATEAHRSTNAQGSHWKQRRKFLPDDIGQSPIVSMPDGDKVDLEAFSEFTKIITPAITRVVDFAKKLPMFSELPCEDQIILLKGCCMEIMSLRAAVRYDPESDTLTLSGEMAVKREQLKNGGLGVVSDAIFELGKSLSAFNLDDTEVALLQAVLLMSTDRSGLLCVDKIEKSQEAYLLAFEHYVNHRKHNIPHFWPKLLMKVTDLRMIGACHASRFLHCKVECPTELFPPLFLEVFEDQEV | soluble
6 | AKVVCVLYDDPINGYPTSYARDDLPRIDKYPDGQTLPTPKAIDFTPGALLGSVSGELGLRKYLESQGHELVVTSSKDGPDSELEKHLHDAEVIISQPFWPAYLTAERIAKAPKLKLALTAGIGSDHVDLQAAIDNNITVAEVTYCNSNSVAEHVVMMVLGLVRNYIPSHDWARNGGWNIADCVARSYDVEGMHVGTVAAGRIGLRVLRLLAPFDMHLHYTDRHRLPEAVEKELNLTWHATREDMYGACDVVTLNCPLHPETEHMINDETLKLFKRGAYLVNTARGKLCDRDAIVRALESGRLAGYAGDVWFPQPAPNDHPWRTMPHNGMTPHISGTSLSAQTRYAAGTREILECYFEGRPIRDEYLIVQGGGLAGVGAHSYSKGNATGGSEEAAKYEKLDA | soluble
7 | MGSDKIHHHHHHMEVAAVDSLEALYKMVAKLYRRLSASARKRLLEGVELAAEKGDPALAYHRLSTLARDYYGDSLPYASDGYYKTYKHTRCVGLPEPTKVSGVDVLEAIRRRRSRRSFSRRPLTLTEVSTILFHVAGITGLAWWGGPKRPYPSAGALQPVEAYLVVERVEGLKPGLYHYNPSGHCLEMLREGKLLGRLADVSLGQDHVAEAAAALVLTAVYTRTGSKYGHRSYRYVHWDTGFAGENVYLVCEALGLATVAVGAFYDDEMCGFLEIDCPWEMPMLVFPVGARG | not soluble
8 | MKRIITLTVVNRSGVLNRITGLFTKRHYNIESITVGHTETAGVSRITFVVHVEGENDVEQLTKQLNKQIDVLKVTDITNQSIVQRELALIKVVSAPSTRTEINGIIEPFRASVVDVSRDSIVVQVTGESNKIEALIELLKPYGIKEIARTGTTAFARGTSKRRHPIKQYLLYKTLEHHHHHH | soluble
9 | MKDRELLAKSITTKDAVSDGRESPSLLSDKLSRLPWSTLYASVFCAGVLLLPFSGQAVEPPVAAKASENKNQLKTLQQDIAEKEKSVQQQKKQRSSLLDQLKQQENTISQTSRSLRETQAALAELSKDIASLTTSIEKLQNQQSQQQSILSKQLAAAFKQGKHSSLQLILSGEESQRSERILAYFSYLNEARQKAIEELKQTRTTLSAEKKMLEQKQNQHKALLDEQKAQQQKLEQARIARQKTLTSLEASLEKDQQSLAELKLNESRLRDQIAKAEREAKARAEREAKEAARVREQVKVKEQQAKKTGSSYKPSESERSLMARTGGLGRPGGQALWPVRGNVSHRFGEPLQGELRWKGMVITAPEGSEVKAIADGRVLLADWLQGYGLVVVIEHGKGDMSLYGYNQSALVNVGAQVKAGQPIALVGTSGGQGEPSLYFEIRRQGQAVNPQPWLGR | not soluble
10 | MAIAPQQIQERLKQEQYQKFVVADIGNFPHCLAQTPEGIASGQRYQKYSTNSLSRTPPFSQWGAPQLLTPKSAQEYIKFAQQRNKKSSFKIDGEAVRVSECSNFAYHSAGVLLDDPQIRTQYDVAVIGSMHSNGRYLHNITLLVPKGSRLPQPPQQLTAEVFPIGTLIVDPWAVGMGHPPEQALAIPKEQFAYNRSLFPATVNYQSALDESLTSTRTGQLTPYTGTPSRTGRQEVRAESQFPGTRRPVSATIPGNFAAYHELWRNAFQEIMNDPRHQLHRNDVEYKKIHAIRTVLDDYTKGGNTWWAKFRRIFTFHWNRHHVKVVDDIVKEIDAGNYTTSRALVDRLDNLAISLGSKLNPKGTLKEQIGFIKIQEQNPVEEIENLSRPNLT | not soluble
11 | MSLPRITALRTIRLPERPKLIWVEVETEDGLTGLGETFRGAQAVEAVLHEQTAPAIIGRAAENITSISSELLNPYVGFGSSSAEVRAASAVDIALWDLAGQRAGVPLHVALGGAARDRVPVYATCAGYDFNTSLGGRRSIGSAELSTGPYDDQVAFMRDAGVLAESLVAEGYAAMKIWPFDDFASITPHHISLTDLKDGLEPFRKIRAAVGQRIEIMCELHSLWGTHAAARICNALADYGVLWVEDPIAKMDNIPAVADLRRQTRAPICGGENLAGTRRFHEMLCADAIDFVMLDLTWCGGLSEGRKIAALAETHARPLAPHDCTGPVALMAGLHLALHAPTAIFQEVVRASLATWYADLVDHLPVIQEGIALAPTRPGLGTALLPHVRKIAGAVVRESGKPREGHHHHHH | soluble
12 | MSINTSGKITSATERADSADFRTIIRNKIPLMDVRAPVEFGKGAFDLSINYPLMNNDERADVGICYKQNGQEAAIKLGNALVSGQSKARRLTQWQTFARENPQGYLYCFRGGLRSQTVQRWLKESGINYPLITGGYKALRQFLLNELEQLALHPLTILAGNTGSGKTPFLAHCANSLDLEGAAGHRGSSFGSFVTPQSNQINFENKLAEQYIRGDFSLEQRLVLEDEGRLIGSVHLPESLRNAMTLAPLVVIEESLEYRLEQIYQEYIIKMTAQYQAAYGVEQGFTAFSEYLEHGLFKVRKRLGTQRYGQLKEIQSTALTQQNKGQPQYHLDWLKPLLSEYYDPMYQYQLGLKSDRVIFRGNNSECLAFLRD | not soluble
13 | QPTAPKDFSSGFWDFNDGTTQGFGVNPDSPITAINVENANNALKISNLNSKGSNDLSEGNFWANVRISADIWGQSINIYGDTKLTMDVIAPTPVNVSIAAIPQSSTHGWGNPTRAIRVWTNNFVAQTDGTYKATLTISTNDSPNFNTIATDAADSVVTNMILFVGSNSDNISLDNIKFTK | soluble
14 | SLNKKFSYPIPNFTDRRKSIIFWRYLRFQARKILYFPQVRLLEKTLNKEKNKHLKDFFSQRPYACYNATRRFCDKSFKANERVKTLIYDVDKGLACFKFLPEEQIIFSFDEDFELFLGYNYNVCEEGFWAFSLKFKKYTILQCNFCFTLENNLLLSCIQGHKYKDFNILEINKILTKKCHGLRPVALLIECSKMLCEILKLQTTLGVHEKNQIRSQKGKEKGYFVDYQKIWLENGGELIKINKHKYYKLHHSQKNLEEIPSQKRSMYKKRFAMLEEIKTNLDKTLSIQD | not soluble
15 | MGSDKIHHHHHHMLKKVSRLDYFTLQVFIGLVELKSGSAVAERLRTTQSKVSRCLTCLREVLEDELFIRQQYGFEPNQVAVTIYPMVKTILEQYDKIVAATIDKGAEPYQLSVATYEQWSLMAMNCVHNTCHCIEGGVSINIQPWTDKIHQRLCQGKVDCSISTEPINHPMVNNFKLGDITHFFIVARRGHPILSSDAPLTQMFNYHIALVNTHLQEQEPHPIEVYAKARHIEIRVALKSPSLRMVVDHVSHSEDIALLSSAMSMAYFENRDDVDYLDISKIWLQTTELETQSYYLHCHKGIKPELTHCLRRVLTEKLHEMQAHCDQVAQENTRDLPTL | not soluble
16 | QVQLLQPGAELVKPGASVKLSCKASGYTFTSYWMYWVKQRPGQGLEWIGEIDPSDSYTNYNQNFKGKATLTVDKSSSTAFMQLSSLTSQDSAVYFCARSPHYYGTTYNYPMDYWGQGTSVTVSSAKTTPPSVYPLAPGCGDTTGSSVTLGCLVKGYFPESVTVTWNSGSLSSSVHTFPALLQSGLYTMSSSVTVPSSTWPSQTVTCSVAHPASSTTVDKKLEP | soluble
17 | MHHHHHHSSGVDLGTENLYFQSNAMKEELIERFTRYVKIDTQSNEDSHTVPTTPGQIEFGKLLVEELKEVGLTEVTMDDNGYVMATLPANTDKDVPVIGFLAHLDTATDFTGKNVKPQIHENFDGNAITLNEELNIVLTPEQFPELPSYKGHTIITTDGTTLLGADDKAGLTEIMVAMNYLIHNPQIKHGKIRVAFTPDEEIGRGPAHFDVEAFGASFAYMMDGGPLGGLEYESFNAAGAKLTFNGTNTHPGTAKNKMRNATKLAMEFNGHLPVEEAPEYTEGYEGFYHLLSLNGDVEQSKAYYIIRDFDRKNFEARKNTIENIVKQMQEKYGQDAVVLEMNDQYYNMLEKIEPVREIVDIAYEAMKSLNIEPNIHPIRGGTDGSQLSYMGLPTPNIFTGGENYHGKFEYVSVDVMEKAVQVIIEIARRFEEQA | soluble
18 | QYAPQTQSGRTSIVHLFEWRWVDIALECERYLGPKGFGGVQVSPPNENIVVTNPSRPWWERYQPVSYKLCTRSGNENEFRDMVTRCNNVGVRIYVDAVINHMCGSGAAAGTGTTCGSYCNPGSREFPAVPYSAWDFNDGKCKTASGGIESYNDPYQVRDCQLVGLLDLALEKDYVRSMIADYLNKLIDIGVAGFRIDASKHMWPGDIKAVLDKLHNLNTNWFPAGSRPFIFQEVIDLGGEAIKSSEYFGNGRVTEFKYGAKLGTVVRKWSGEKMSYLKNWGEGWGFMPSDRALVFVDNHDNQRGHGAGGSSILTFWDARLYKIAVGFMLAHPYGFTRVMSSYRWARNFVNGEDVNDWIGPPNNNGVIKEVTINADTTCGNDWVCEHRWREIRNMVWFRNVVDGQPFANWWDNGSNQVAFGRGNRGFIVFNNDDWQLSSTLQTGLPGGTYCDVISGDKVGNSCTGIKVYVSSDGTAQFSISNSAEDPFIAIHAESKL | soluble
19 | MAGDPMQADLFDAEQTGIRTRLGEQAWVLRGFALPWLDALLPALRAVIAQAPLRHMATPGGFTMSVALTNCGALGWTTDAHGYRYRPDDPQTGLPWPPMPQAFAQLAREAAAQAGFAGFDPDACLVNRYAPGARMSLHQDKNERDFGAPIVSVSLGLPAMFLFGGARRDERPARIPLLHGDVAVWGGVDRLRYHGVMPLAEGQHPLLGRQRINFTLRRAGALEHHHHHH | not soluble
20 | MSLKPTVWHHLRLCPHGHPDETIDDAAIAVDETGTIVWLGAVSALPHGYAHWRREDLHGAWVTPGLVDCHTHLVYGGTRADEFAQRLAGVSYEEIARQGGGIVSTVRATRAADETTLFVQAAARLQPLLAEGVTAIEIKSGYGLDLASERKMLRVARQLGERFPVTVYTTFLGAHALPPEYAGRADAYIDEVCDRMLPALADEGLVDAVDVFCERIGFSLAQTERVFEAATRRGLPVKLHAEQLSNAGGTALAARYRALSADHLEFLDEAGIEAMKAAGTVAVLLPGAYYFIRETQLPPIELLRKHGVPIALATDHNPGTSPLESLLLTLNMGCTLFRMTVPEVLQGVTCHAAAALGRADRHGALEVGRQADFAAWSVGSLAELAYWIGRPLCEQVVRGGTTVFRRMNGEGHHHHHH | soluble
21 | MKMELKEGGKIFFRWFRKTFGEEVTDEGIIHRLEPPNLIEFSWNTYEDGFRSRVKMEFFPSSYNGTWVQVEDHTIVLNEEDMKIKLECAVGWGEMLTLAKIWIEYGISTLENP | not soluble
